We go through two molecules from PMC3834833 (Nucleic Acids Research, 2013).

“And” between values parts separate entries of the source, which are not always exact repeats. Equal values may be shown once.

Data set [1] concerns the molecule itself. Kind of data set: glycerol gradient centrifugation; 10 ml linear 20-40% (v/v) glycerol gradient, 10 mM Tris-HCl pH 8.0, 100 mM NaCl, 1 mM EDTA, 2 mM DTT; SW-41 rotor, 38 000 rpm, 24 h, 8°C; fractions by SDS-PAGE and Coomassie; S value and molecular weight by comparison with protein markers; major oligomeric state.
The target in data set [2] is translin (wild type) (Homo sapiens, UniProt Q15631 1-228). Nature of the data set: SAXS; translin octamer:RNA 1:1.5; Rg 47.2 vs 48.4 A free; SAXS: 10 mM Tris-HCl pH 8.0, 100 mM NaCl, 0.1 mM EDTA, 1 mM DTT, 5% glycerol; complex incubated 20 min at 25 C, measured at 10 C. Conditions: protein: recombinant; tags: N-terminal His6 (pQE-9); chain copies: 8; single strand.

B1: translin variant Nt-1 (I6A/F7A) (natural protein, human, UniProt Q15631 1-228, looked up)
chain: MSVSEAAVELQGFLAAEQDIREEIRKVVQSLEQTAREILTLLQGVHQGAGFQDIPKRCLKAREHFGTVKTHLTSLKTKFPAEQYYRFHEHWRFVLQRLVFLAAFVVYLETETLVTREAVTEILGIEPDREKGFHLDVEDYLSGVLILASELSRLSVNSVTAGDYSRPLHISTFINELDSGFRLLNLKNDSLRKRYDGLKYDVKKVEEVVYDLSIRGFNKETAAACVEK
notes: translin, human; mutant of the pQE-9 translin plasmid made by QuikChange site-directed mutagenesis; Same construct as m1 with the stated substitutions; also called N-terminal 1; source: E. coli, purified
On to B1, for which, in data set [1], the “stoichiometry N” value was 4 subunits and 3.9 subunits.

For the molecule GUGUGUGUGUGUGUGUGUGUGUGU (ssRNA) [(GU)12], the binding result in data set [2] is listed as “binds”.
